Results: article PMC5673888, “Crystal structure of tripartite-type ABC transporter MacB from Acinetobacter baumannii” (Nature Communications, 2017)

Columns and labels:
[1] = target: MacB from Acinetobacter baumannii (Acinetobacter baumannii); assay: crystal structure; MacB in 0.05% UDM, 10 mM ADPβS and 2 mM MgCl2 added; sitting drop vapour diffusion at 25 °C, 1.2–1.3 M sodium citrate, 100 mM Na-HEPES pH 7.2; Se-Met crystal with 2 mM ATP instead of ADPβS; 3.4 Å
MacB = target: T1, MacB (Acinetobacter baumannii, UniProt A0A0D8G707); assay: X-ray crystal structure of complex ([…] Å); conditions: co-crystallized with 10 mM ADPβS, 2 mM MgCl2; composite nucleotide-binding sites at NBD dimer interface
T1 construct: full length (664 residues inferred: stop at Leu655 removes C-terminal 10), N-terminal His6 tag, E. coli BL21(DE3), UDM-solubilized homodimer

Row | Molecule | stoichiometry N [1] | X-ray crystal structure of complex (3.4 Å) (MacB)
1 | MacB from Acinetobacter baumannii (from UniProt A0A0D8G707 1-664) (natural protein) | 2 | 
2 | Nc1ncnc2c1ncn2[C@@H]1O[C@H](COP(=O)(O)OP(=O)(O)S)[C@@H](O)[C@H]1O (some centres unmarked) [ADPβS] |  | MacB was crystallized in the presence of adenosine-5′-(β-thio)-diphosphate (ADPβS)
